Experiments:
NPR-B [1] = target: T1, NPR-B (Homo sapiens, UniProt P20594); assay: Membrane guanylyl cyclase (cGMP) assay, NPR-B; format: biochemical; conditions: second NPR-B membrane assay (FIG. 21B)
T1 sequence (P20594 23-1047): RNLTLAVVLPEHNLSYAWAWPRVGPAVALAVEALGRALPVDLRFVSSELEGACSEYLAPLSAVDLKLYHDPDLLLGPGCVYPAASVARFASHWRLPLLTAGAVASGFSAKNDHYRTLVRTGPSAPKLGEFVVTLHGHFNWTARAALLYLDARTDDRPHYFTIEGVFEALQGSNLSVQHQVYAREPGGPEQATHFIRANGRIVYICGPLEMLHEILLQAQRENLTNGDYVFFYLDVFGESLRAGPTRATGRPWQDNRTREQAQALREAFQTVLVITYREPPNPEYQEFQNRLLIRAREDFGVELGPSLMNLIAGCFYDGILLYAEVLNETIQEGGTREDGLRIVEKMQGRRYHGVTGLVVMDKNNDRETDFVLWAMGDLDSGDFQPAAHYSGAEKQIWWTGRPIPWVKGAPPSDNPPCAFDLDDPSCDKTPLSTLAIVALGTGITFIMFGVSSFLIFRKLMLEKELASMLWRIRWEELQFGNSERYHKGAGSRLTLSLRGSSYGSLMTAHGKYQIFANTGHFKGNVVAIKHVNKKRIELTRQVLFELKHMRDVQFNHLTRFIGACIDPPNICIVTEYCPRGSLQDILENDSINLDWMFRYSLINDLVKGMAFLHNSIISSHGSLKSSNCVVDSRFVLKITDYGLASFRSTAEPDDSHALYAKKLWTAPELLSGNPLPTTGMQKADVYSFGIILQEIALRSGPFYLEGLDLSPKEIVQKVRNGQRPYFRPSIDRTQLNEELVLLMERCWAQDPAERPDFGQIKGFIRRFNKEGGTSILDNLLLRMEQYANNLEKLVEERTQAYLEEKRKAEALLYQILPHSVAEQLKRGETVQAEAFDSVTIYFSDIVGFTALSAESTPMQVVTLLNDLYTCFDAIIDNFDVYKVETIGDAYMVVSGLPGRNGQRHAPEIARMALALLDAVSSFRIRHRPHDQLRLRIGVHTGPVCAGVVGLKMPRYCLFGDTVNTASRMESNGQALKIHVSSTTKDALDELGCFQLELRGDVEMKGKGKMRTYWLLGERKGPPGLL

NPR-B [2] = target: T1, NPR-B; assay: Whole cell guanylyl cyclase (cGMP) assay, NPR-B; format: cell-based; set-up: expressed in transfected cells
Method in brief: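 HEK293S cells, transiently transfected or stably expressing human NPR-B, treated in triplicate with increasing test-protein concentrations in serum-free DMEM with 1 mM IBMX and 0.5% BSA, 37° C, 30 min to one hour; CNP as reference. Lysate cGMP measured by Catchpoint kit; four-parameter logistic fit of dose-response curves.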

[3] = NPR-B whole cell assay (FIG. 21C)
[4] = projected from relative activities of CNP22 and NC2st in NPR-B whole cell assays

efficacy relative to CNP (NPR-B [1]): 61%
potency relative to CNP (times less than that of CNP) (NPR-B [1]): 19 times
efficacy relative to CNP (NPR-B [2]; [3]): 84%
potency relative to CNP (times less than that of CNP) (NPR-B [2]; [3]): 83 times
projected targeted NC2st concentration to achieve 50% reversal of ACH phenotype (NPR-B [2]; [4]): 345 (±95 S.D.) nM
projected targeted NC2st concentration to achieve >100% reversal of ACH phenotype (NPR-B [2]; [4]): 1214 (±446 S.D.) nM
Substance: NC2st: Fc-CNP fusion: Strep-tag II, TEV site, human IgG-1 Fc, 16-amino acid glycine-rich linker, CNP22; SEQ ID NO: 502
